Test results taken from publication PMC2914788, “Phage-Derived Fully Human Monoclonal Antibody Fragments to Human Vascular Endothelial Growth Factor-C Block Its Interaction with VEGF Receptor-2 and 3” (PLoS ONE, 2010).

Biological target: T1, VC2.2.2 VH-myc (human)
T1 construct: as the VH of m13 (VC2.2.2), from Glu1 to Ser113; Chothia numbering; also called anti-VEGF-C VC2.2.2 VH; single VH-domain of VC2.2.2; source: E. coli (pHEN1), IPTG-induced, bacterial supernatant (ELISA); protein-A purified (SEC); not shown: myc, C-terminal, kept
Assay: ELISA; bacterial supernatant of IPTG-induced cultures expressing VH-myc on ΔNΔC-VEGF-C or alpha-2-macroglobulin; detection with anti-myc and anti-mouse HRP or with protein-A-HRP
Details: one partner purified

B1: ΔNΔC-VEGF-C (variant not stated for the experiment) (ligand, human, UniProt P49767 112-227, looked up)
chain: AHYNTEILKSIDNEWRKTQCMPREVCIDVGKEFGVATNTFFKPPCVSVYRCGGCCNSEGLQCMNTSTSYLSKTLFEITVPLSQGPKPVTISFANHTSCRCMSKLDVYRQVHSIIRR
notes: fully processed ΔNΔC form of human VEGF-C; also called fully processed human VEGF-C
B1: binds.
